Measurements: patent publication US20250152742A1, “COMPOSITIONS AND METHODS FOR NEUROLOGICAL DISEASES” (Trames Bio, Inc., priority 2022, published 2025)

System: engineered chimeric receptor SEQ ID NO: 33 and its mutants (human α7-nAChR ligand binding domain / human GlyRα1 ion pore domain) in Lenti-X 293T cells
Assay: YFP fluorescence quenching anion reporter plate reader assay (percent quench, EC50)
Assay type: cell-based
Conditions: for YFP fluorescence quenching using CNL001 (percent quench): receptor named in row; for YFP fluorescence quenching using Facinicline, 30 nM fac: ligand Facinicline 30 nM; for YFP fluorescence quenching using Facinicline, 300 nM fac: ligand Facinicline 300 nM; for YFP fluorescence quenching using Facinicline, 30 uM fac: ligand Facinicline 30 uM; for YFP fluorescence quenching using TC-6987, 1 uM tc6987: ligand TC-6987 1 uM; for YFP fluorescence quenching using TC-6987, 10 uM tc6987: ligand TC-6987 10 uM; for YFP fluorescence quenching using TC-6987, 500 uM tc6987: ligand TC-6987 500 uM; for YFP fluorescence quenching using Varenicline, 3 nM var: ligand Varenicline 3 nM; for YFP fluorescence quenching using Varenicline, 30 nM var: ligand Varenicline 30 nM; for YFP fluorescence quenching using Varenicline, 300 nM var: ligand Varenicline 300 nM; for YFP fluorescence quenching using Varenicline, 500 nM var: ligand Varenicline 500 nM; for YFP fluorescence quenching using Varenicline, 1 uM var: ligand Varenicline 1 uM
From the text: To screen these mutant LGICs for those having novel response profiles to ligands, an anion reporter assay was developed to assess the function of the LGICs in a high throughput format. In this assay, cells expressing a YFP reporter whose fluorescence is quenched in the presence of anion are transfected with DNA encoding the channel of interest. Upon exposure to ligand, channels that are activated will flux anion, resulting in a dose-dependent quench of the YFP that can be detected on a plate reader. The greater the quench signal (i.e., the more positive the value), the higher the ligand activity on the receptor is.
Lenti-X 293T cells (LX293T, Clontech) were maintained in DMEM containing 10% FBS and 1% penicillin/streptomycin (Invitrogen). […] Two days before assay, cells were split at a density of 20,000 cells/well in a 96-well tissue culture plate coated with poly-d lysine (Thermo Scientific). The next day, the cells were transiently transfected with 0.1 μg of DNA per well using standard Fugene protocol (Promega). On the day of assay, cells were washed 2 times in 1X extracellular solution (1X ECS: 140 mM NaCl, 5 mM KCl, 1 mM MgCl2, 2 mM CaCl2, 10 mM HEPES, 10 mM glucose, pH 7.2, mOsms 300). After the last wash, 100 μL of 1X ECS was added to the wells and the plate was incubated at 37° C. for 30 min. While incubating the plate, the drugs were diluted to a 2X concentration in 1X ECS-Nal (same components as 1X ECS except the 140 mM NaCl was replaced by 140 mM Nal). The plates were then read on a Flexstation3 (Molecular Devices). Each well, 8 wells at a time, of the plate is read for 2 min using a Flexstation3 (Molecular Devices) as follows: 1) a baseline YFP fluorescence is read for 17 sec, 2) 100 μL of ligand is added, and 3) the changes in YFP fluorescence are then measured every 1.3 sec for 1 minute and 43 seconds. The percent quench is calculated from the average fluorescence of the last 10 seconds of the read divided by the baseline average of the first 15 seconds prior to the ligand addition.
FIGS. 1A-1J provide heat maps of the percent quench of YFP fluorescence following stimulation by various doses of either acetylcholine or the non-native ligand as indicated in the Figures. CODA71 (SEQ ID NO: 33) was used as a control, and CODA75 (SEQ ID NO: 29, a non-responding chimeric engineered receptor) was used as the negative control. Quenching of the fluorescence signal, as indicated by blue shaded cells, indicate the level of engineered receptor activation by the non-native ligand at that concentration.

[1] = 1 nM CNL001, first column so headed
[2] = 1 nM CNL001, second column so headed
[3] = 3 nM brd (TC-5619/Bradanicline)
[4] = 10 nM CNL001, first column so headed
[5] = 10 nM CNL001, second column so headed
[6] = 30 nM brd (TC-5619/Bradanicline)
[7] = 50 nM CNL001, first column so headed
[8] = 50 nM CNL001, second column so headed
[9] = 100 nM CNL001, first column so headed
[10] = 100 nM CNL001, second column so headed
[11] = 300 nM brd (TC-5619/Bradanicline)
[12] = 1 uM CNL001, first column so headed
[13] = 1 uM CNL001, second column so headed

B1: CODA238: engineered receptor: R101W in SEQ ID NO: 33 (protein)
chain: MRCSPGGVWLALAASLLHVSLQGEFQRKLYKELVKNYNPLERPVANDSQPLTVYFSLSLLQIMDVDEKNQVLTTNIWLQMSWTDHYLQWNVSEYPGVKTVWFPDGQIWKPDILLYNSADERFDATFHTNVLVNSSGHCQYLPPGIFKSSCPMDLKNFPMDVQTCKLKFGSWSYGGWSLDLQMQEADISGYIPNGEWDLVGIPGKRSERFYECCKEPYPDVTFTVTMRRRMGYYLIQMYIPSLLIVILSWISFWINMDAAPARVGLGITTVLTMTTQSSGSRASLPKVSYVKAIDIWMAVCLLFVFSALLEYAAVNFVSRQHKELLRFRRKRRHHKSPMLNLFQEDEAGEGRFNFSAYGMGPACLQAKDGISVKGANNSNTTNPPPAPSKSPEEMRKLFIQRAKKIDKISRIGFPMAFLIFNMFYWIIYKIVRREDVHNQ
modifications: synthetic sequence of chimeric LGIC
YFP fluorescence quenching using CNL001 (percent quench) [1]: 32.42% | YFP fluorescence quenching using CNL001 (percent quench) [2]: 54.768% | YFP fluorescence quenching using TC-5619/Bradanicline (percent quench) [3]: 74.7% | YFP fluorescence quenching using CNL001 (percent quench) [4]: 75.149% | YFP fluorescence quenching using CNL001 (percent quench) [5]: 75.339% | YFP fluorescence quenching using TC-5619/Bradanicline (percent quench) [6]: 76.78% | YFP fluorescence quenching using CNL001 (percent quench) [7]: 75.881% | YFP fluorescence quenching using CNL001 (percent quench) [8]: 77.844% | YFP fluorescence quenching using ABT-126 (percent quench) (50 nM abt (ABT-126)): −14.97% | YFP fluorescence quenching using CNL001 (percent quench) [9]: 78% | YFP fluorescence quenching using CNL001 (percent quench) [10]: 78.575% | YFP fluorescence quenching (percent quench) (100 nM CNL002): 2.95% | YFP fluorescence quenching using ABT-126 (percent quench) (100 nM abt (ABT-126)): −14.66% | YFP fluorescence quenching using AZD-0328 (percent quench) (100 nM azd0328): 22.94% | YFP fluorescence quenching using ABT-126 (percent quench) (300 nM abt (ABT-126)): −16.35% | YFP fluorescence quenching using AZD-0328 (percent quench) (300 nM azd0328): 75.38% | YFP fluorescence quenching using TC-5619/Bradanicline (percent quench) [11]: 77.01% | YFP fluorescence quenching using CNL001 (percent quench) [12]: 81.126% | YFP fluorescence quenching using CNL001 (percent quench) [13]: 79.482% | YFP fluorescence quenching (percent quench) (1 uM CNL002): 67.93% | YFP fluorescence quenching using ABT-126 (percent quench) (1 uM abt (ABT-126)): 50.02% | YFP fluorescence quenching (percent quench) (10 uM ach (acetylcholine)): −16.58% | YFP fluorescence quenching (percent quench) (30 uM CNL002): 73.02% | YFP fluorescence quenching using AZD-0328 (percent quench) (30 uM azd0328): 81.8% | YFP fluorescence quenching (percent quench) (100 uM ach (acetylcholine)): 75.18% | YFP fluorescence quenching (percent quench) (1 mM ach (acetylcholine)): 78.99% | YFP fluorescence quenching (percent quench) (3 mM ach (acetylcholine)): 75.74% | YFP fluorescence quenching using Facinicline, 30 nM fac: −19.61 | YFP fluorescence quenching using Facinicline, 300 nM fac: 76.54 | YFP fluorescence quenching using Facinicline, 30 uM fac: 87.94 | YFP fluorescence quenching using TC-6987, 1 uM tc6987: 72.47 | YFP fluorescence quenching using TC-6987, 10 uM tc6987: 72.04 | YFP fluorescence quenching using TC-6987, 500 uM tc6987: 76.56 | YFP fluorescence quenching using Varenicline, 3 nM var (first column): 17.896 | YFP fluorescence quenching using Varenicline, 3 nM var (second column): 12.564 | YFP fluorescence quenching using Varenicline, 30 nM var (first column): 16.263 | YFP fluorescence quenching using Varenicline, 30 nM var (second column): 22.117 | YFP fluorescence quenching using Varenicline, 300 nM var (first column): 77.492 | YFP fluorescence quenching using Varenicline, 300 nM var (second column): 79.056 | YFP fluorescence quenching using Varenicline, 500 nM var (first column): 80.186 | YFP fluorescence quenching using Varenicline, 500 nM var (second column): 80.065 | YFP fluorescence quenching using Varenicline, 1 uM var (first column): 81.263 | YFP fluorescence quenching using Varenicline, 1 uM var (second column): 80.702

B2: CODA282: engineered receptor: Y115D in SEQ ID NO: 33 (protein)
chain: MRCSPGGVWLALAASLLHVSLQGEFQRKLYKELVKNYNPLERPVANDSQPLTVYFSLSLLQIMDVDEKNQVLTTNIWLQMSWTDHYLQWNVSEYPGVKTVRFPDGQIWKPDILLDNSADERFDATFHTNVLVNSSGHCQYLPPGIFKSSCPMDLKNFPMDVQTCKLKFGSWSYGGWSLDLQMQEADISGYIPNGEWDLVGIPGKRSERFYECCKEPYPDVTFTVTMRRRMGYYLIQMYIPSLLIVILSWISFWINMDAAPARVGLGITTVLTMTTQSSGSRASLPKVSYVKAIDIWMAVCLLFVFSALLEYAAVNFVSRQHKELLRFRRKRRHHKSPMLNLFQEDEAGEGRFNFSAYGMGPACLQAKDGISVKGANNSNTTNPPPAPSKSPEEMRKLFIQRAKKIDKISRIGFPMAFLIFNMFYWIIYKIVRREDVHNQ
modifications: synthetic sequence of chimeric LGIC
YFP fluorescence quenching using CNL001 (percent quench) [1]: −15.837% | YFP fluorescence quenching using CNL001 (percent quench) [2]: −6.519% | YFP fluorescence quenching using TC-5619/Bradanicline (percent quench) (1 nM brd (TC-5619/Bradanicline)): −0.54% | YFP fluorescence quenching using TC-5619/Bradanicline (percent quench) [3]: −7.22% | YFP fluorescence quenching using CNL001 (percent quench) [4]: −4.862% | YFP fluorescence quenching using CNL001 (percent quench) [5]: −8.244% | YFP fluorescence quenching using TC-5619/Bradanicline (percent quench) (10 nM brd (TC-5619/Bradanicline)): −2.82% | YFP fluorescence quenching using TC-6683 (percent quench) (30 nM TC-6683): 0.365% | YFP fluorescence quenching using TC-5619/Bradanicline (percent quench) [6]: −16.67% | YFP fluorescence quenching using CNL001 (percent quench) [7]: −3.807% | YFP fluorescence quenching using CNL001 (percent quench) [8]: −2.871% | YFP fluorescence quenching using ABT-126 (percent quench) (50 nM abt (ABT-126)): −21.22% | YFP fluorescence quenching using CNL001 (percent quench) [9]: −7.924% | YFP fluorescence quenching using CNL001 (percent quench) [10]: 2.11% | YFP fluorescence quenching (percent quench) (100 nM CNL002): −9.7% | YFP fluorescence quenching using ABT-126 (percent quench) (100 nM abt (ABT-126)): −19.7% | YFP fluorescence quenching using AZD-0328 (percent quench) (100 nM azd0328): 3.19% | YFP fluorescence quenching using TC-5619/Bradanicline (percent quench) (100 nM brd (TC-5619/Bradanicline)): −0.02% | YFP fluorescence quenching using TC-6683 (percent quench) (300 nM TC-6683): −6.865% | YFP fluorescence quenching using ABT-126 (percent quench) (300 nM abt (ABT-126)): −15.55% | YFP fluorescence quenching using AZD-0328 (percent quench) (300 nM azd0328): 4.79% | YFP fluorescence quenching using TC-5619/Bradanicline (percent quench) [11]: −12.37% | YFP fluorescence quenching using CNL001 (percent quench) [12]: 11.047% | YFP fluorescence quenching using CNL001 (percent quench) [13]: 8.04% | YFP fluorescence quenching (percent quench) (1 uM CNL002): −8.37% | YFP fluorescence quenching using ABT-126 (percent quench) (1 uM abt (ABT-126)): −14.31% | YFP fluorescence quenching using TC-5619/Bradanicline (percent quench) (1 uM brd (TC-5619/Bradanicline)): 31.23% | YFP fluorescence quenching using TC-6683 (percent quench) (3 uM TC-6683): −4.927% | YFP fluorescence quenching (percent quench) (10 uM ach (acetylcholine)): 6.81% | YFP fluorescence quenching (percent quench) (30 uM CNL002): 3.4% | YFP fluorescence quenching using TC-6683 (percent quench) (30 uM TC-6683): −11.259% | YFP fluorescence quenching using AZD-0328 (percent quench) (30 uM azd0328): 76.78% | YFP fluorescence quenching using TC-6683 (percent quench) (100 uM TC-6683): −11.894% | YFP fluorescence quenching (percent quench) (100 uM ach (acetylcholine)): 1.19% | YFP fluorescence quenching (percent quench) (1 mM ach (acetylcholine)): −14.05% | YFP fluorescence quenching (percent quench) (3 mM ach (acetylcholine)): 2.37% | YFP fluorescence quenching using Facinicline, 30 nM fac: 10.17 | YFP fluorescence quenching using Facinicline, 100 nM fac (ligand Facinicline 100 nM): 24.77 | YFP fluorescence quenching using Facinicline, 300 nM fac: 51.04 | YFP fluorescence quenching using Facinicline, 10 uM fac (ligand Facinicline 10 uM): 79.76 | YFP fluorescence quenching using Facinicline, 30 uM fac: 81.7 | YFP fluorescence quenching using TC-6987, 1 uM tc6987: 13.01 | YFP fluorescence quenching using TC-6987, 10 uM tc6987: 14.73 | YFP fluorescence quenching using TC-6987, 500 uM tc6987: 14.29 | YFP fluorescence quenching using Varenicline, 3 nM var (first column): 2.111 | YFP fluorescence quenching using Varenicline, 3 nM var (second column): −12.265 | YFP fluorescence quenching using Varenicline, 30 nM var (first column): −4.433 | YFP fluorescence quenching using Varenicline, 30 nM var (second column): −6.153 | YFP fluorescence quenching using Varenicline, 300 nM var (first column): −0.861 | YFP fluorescence quenching using Varenicline, 300 nM var (second column): −1.308 | YFP fluorescence quenching using Varenicline, 500 nM var (first column): 0.733 | YFP fluorescence quenching using Varenicline, 500 nM var (second column): −4.633 | YFP fluorescence quenching using Varenicline, 1 uM var (first column): −4.512 | YFP fluorescence quenching using Varenicline, 1 uM var (second column): 0.02
